The text below walks through data of PMC12093266, “Synergistic action of two radical SAM enzymes in the biosynthesis of thuricin CD, a two-component sactibiotic†” (Chemical Science, 2025).

This assay has as its target T1, TrnC (Bacillus thuringiensis, fluorescently labeled with RED-NHS (in the MST experiments where TrnC is the labelled partner)).
T1 construct: TrnC, radical SAM (rSAM/SPASM) sactisynthase encoded in the thuricin CD biosynthetic gene cluster of Bacillus thuringiensis; Likely holds three [4Fe-4S] clusters after reconstitution; also called 6× His-tagged TrnC; wild type TrnC; source: E. coli, purified to near homogeneity and reconstituted under anaerobic conditions; also E. coli lysate, coexpressed with non-tagged TrnD from a …
As to the kind of experiment: MST; TrnC fluorescently labeled with RED-NHS; series of diluted TrnD (or TrnD(ΔRRE), or an equimolar mixture of TrnD with TrnA or TrnB) mixed with it in capillaries; Monolith instrument; aerobic conditions. Particulars: both partners purified.

B1: TrnD (enzyme)
chain: MKKYFRLYPYCHLEIGETNSCLYDISSGKMIRVNRENAELLRQCQENVPIESINMDLGILDELIKMNLGTYYANPQFIEPFFETNDTKNRIFGKNNILRQMFILTSTDCNMNCKHCNTDSTVFRKTGCKIWPKSINLNALTQSHWRKILEAFYNLHGEELTFIGGEPFLEFDFIKNIVEIAQEVGISKFSIFTNGSIINDTILNFLMENKIKVYIQIFEVDENKFKAFTNSDIPSIQIIDNIKKLNNHHLDLQLRILITRDNDNNLKKIVNTLQKETNVKDIKIEFLYPKPDNSYYSKKYIPLMYDKKREFSHVNVQKMQFLHQYNPSFFGQITIRRDGKVVPHPMLLTRVIGDLQQDDLFTIINTEEYQEYSTLNKEKISKCSTCAYKYNCMDDRVIENFATGDLYGMEYCNF
modifications: fluorescently labeled (in the MST of Fig. 5D only)
Turning to B1, the Kd came out at 2.39 ± 0.46 µM.

B2: equimolar mixture of TrnD and TrnB (complex)
chain 1: MKKYFRLYPYCHLEIGETNSCLYDISSGKMIRVNRENAELLRQCQENVPIESINMDLGILDELIKMNLGTYYANPQFIEPFFETNDTKNRIFGKNNILRQMFILTSTDCNMNCKHCNTDSTVFRKTGCKIWPKSINLNALTQSHWRKILEAFYNLHGEELTFIGGEPFLEFDFIKNIVEIAQEVGISKFSIFTNGSIINDTILNFLMENKIKVYIQIFEVDENKFKAFTNSDIPSIQIIDNIKKLNNHHLDLQLRILITRDNDNNLKKIVNTLQKETNVKDIKIEFLYPKPDNSYYSKKYIPLMYDKKREFSHVNVQKMQFLHQYNPSFFGQITIRRDGKVVPHPMLLTRVIGDLQQDDLFTIINTEEYQEYSTLNKEKISKCSTCAYKYNCMDDRVIENFATGDLYGMEYCNF
chain 2: MEVLNKQNVNIIPESEEVGGWVACVGACGTVCLASGGVGTEFAAASYFL
With B2, the Kd was 0.62 ± 0.16 µM.
